Source: patent US20150344570A1 (published 2015)

T1: FcgRIIb (FcγRIIb) extracellular domain with C-terminal His tag (human, UniProt P31994 43-217)
T1 construct: extracellular domain; not shown: His tag attached to the C terminus
T1 sequence (looked up): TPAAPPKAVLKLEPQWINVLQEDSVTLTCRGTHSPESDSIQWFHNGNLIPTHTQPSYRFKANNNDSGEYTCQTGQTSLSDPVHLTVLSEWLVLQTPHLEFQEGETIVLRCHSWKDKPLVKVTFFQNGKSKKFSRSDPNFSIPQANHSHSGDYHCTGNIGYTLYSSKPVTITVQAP


Legend:
Experiment in all cases: SPR (Biacore); KD of H240-Kn061/H240-Hl071/L73-k0 divided by KD of the variant
[1] = biological target: T2, FcgRIIIa F (FcγRIIIa type F) extracellular domain with C-terminal His tag (human, UniProt P08637 17-208)
T2 construct: extracellular domain; also called FcγRIIIa F; 3aF; not shown: His tag attached to the C terminus
T2 sequence (P08637 17-208): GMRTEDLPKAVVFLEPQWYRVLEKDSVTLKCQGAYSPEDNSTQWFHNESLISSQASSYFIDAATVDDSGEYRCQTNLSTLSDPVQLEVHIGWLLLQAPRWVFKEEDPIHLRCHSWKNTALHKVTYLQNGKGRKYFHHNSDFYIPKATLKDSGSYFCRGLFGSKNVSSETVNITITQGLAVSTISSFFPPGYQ
Method: (§1) The antibodies were assessed for the binding to each FcgR. […] The resultant value was defined as relative KD, and used as an assessment indicator.
(§2) Analysis of interaction between objective antibody and the FcγR was carried out using Biacore T100 (GE Healthcare), Biacore T200, Biacore A100, and Biacore 4000. HBS-EP+ (GE Healthcare) was used as the running buffer, and the measurement temperature was set to 25° C. Chips produced by immobilizing the antigen peptide by the amine coupling method to a Series S sensor Chip CM5 (GE Healthcare), chips produced by allowing preliminarily biotinylated antigen peptides to interact with and immobilize onto a Series S Sensor Chip SA (certified) (GE Healthcare), chips produced by immobilizing Protein L (ACTIGEN, BioVision) to Series S Sencor Chip CM5 (GE Healthcare), or chips produced by immobilizing Protein A/G (Thermo Scientific) to Series S Sencor Chip CM5 (GE Healthcare) were used. Antibodies of interest were captured onto these chips, and allowed to interact to each FcγR diluted with running buffer.

[2] = biological target: T1, FcgRIIb (FcγRIIb) extracellular domain …
Method: as §1, §2

[3] = biological target: T3, FcgRIIIa V (FcγRIIIa type V) extracellular domain with C-terminal His tag (human, UniProt P08637 17-208)
T3 construct: extracellular domain; also called FcγRIIIa V; not shown: His tag attached to the C terminus
T3 sequence (P08637 17-208 F176V limits assumed): as the sequence (P08637 17-208) above, with F160V counted along it
Method: as §1, §2

| relative KD [1] [ratio] | relative KD [2] [ratio] | relative KD [3] [ratio] | Binder |
| --- | --- | --- | --- |
| 1.7 | 0.7 | 1.8 | H240-Kn061/H240-Hl071/L73-k0 variant with Y235M in H240-Kn061 (antibody, human IgG1, kappa, anti-epiregulin heterodimerized IgG1; also called H240-Kn061 Y235M) heavy 1: QDQLVQSGAEVKKPGASVKVSCKASGFNIKDTYIQWVRQAPGQGLEWMGRIDPLRKQTKYREKFEGRVTITADTSTNTAYMELSSLRSEDTAVYYCVRSGREFDYWGQGTLVTVSSASTKGPSVFPLAPSSKSTSGGTAALGCLVKDYFPEPVTVSWNSGALTSGVHTFPAVLQSSGLYSLSSVVTVPSSSLGTQTYICNVNHKPSNTKVDKKVEPKSCDKTHTCPPCPAPEYMWGPSVFLFPPKPKDTLMISRTPEVTCVVVDVSDEDPEVKFNWYVDGVEVHNAKTKPREEQYNATYRVVSVLTVLHQDWLNGKEYKCKVSNKALPAPIEKTISKAKGQPREPQVCTLPPSRDELTKNQVSLWCLVKGFYPSDIAVEWESNGQPENNYKTTPPVLDSDGSFFLYSKLTVDKSRWQQGNVFSCSVMHEALHNHYTQKSLSLSP heavy 2: QDQLVQSGAEVKKPGASVKVSCKASGFNIKDTYIQWVRQAPGQGLEWMGRIDPLRKQTKYREKFEGRVTITADTSTNTAYMELSSLRSEDTAVYYCVRSGREFDYWGQGTLVTVSSASTKGPSVFPLAPSSKSTSGGTAALGCLVKDYFPEPVTVSWNSGALTSGVHTFPAVLQSSGLYSLSSVVTVPSSSLGTQTYICNVNHKPSNTKVDKKVEPKSCDKTHTCPPCPAPELLGGPSVFLFPPKPKDTLMISRTPEVTCVVVDVSHEDPEVKFNWYVDGVEVHNAKTKPREEQYNSTYRVVSVLTVLHQDWLNGKEYKCKVSNDALPMPIEETISKAKGQPREPQVYTLPPSRCELTKNQVSLSCAVKGFYPSDIAVEWESNGQPENNYKTTPPVLDSDGSFFLVSKLTVDKSRWQQGNVFSCSVMHEALHNHYTQKSLSLSP light: DIQMTQSPSSLSASVGDRVTITCRASQDIHKYIAWYQQKPGQAPRLLIQYTSTLQPGVPSRFSGSGSGTDYTFTISSLQPEDIATYYCLQYEQLRTFGGGTKVEIKRTVAAPSVFIFPPSDEQLKSGTASVVCLLNNFYPREAKVQWKVDNALQSGNSQESVTEQDSKDSTYSLSSTLTLSKADYEKHKVYACEVTHQGLSSPVTKSFNRGEC |
| 1.3 | 0.7 | 2 | H240-Kn061/H240-Hl071/L73-k0 variant with Y235N in H240-Kn061 (antibody, human IgG1, kappa, anti-epiregulin heterodimerized IgG1; also called H240-Kn061 Y235N) heavy 1: QDQLVQSGAEVKKPGASVKVSCKASGFNIKDTYIQWVRQAPGQGLEWMGRIDPLRKQTKYREKFEGRVTITADTSTNTAYMELSSLRSEDTAVYYCVRSGREFDYWGQGTLVTVSSASTKGPSVFPLAPSSKSTSGGTAALGCLVKDYFPEPVTVSWNSGALTSGVHTFPAVLQSSGLYSLSSVVTVPSSSLGTQTYICNVNHKPSNTKVDKKVEPKSCDKTHTCPPCPAPEYNWGPSVFLFPPKPKDTLMISRTPEVTCVVVDVSDEDPEVKFNWYVDGVEVHNAKTKPREEQYNATYRVVSVLTVLHQDWLNGKEYKCKVSNKALPAPIEKTISKAKGQPREPQVCTLPPSRDELTKNQVSLWCLVKGFYPSDIAVEWESNGQPENNYKTTPPVLDSDGSFFLYSKLTVDKSRWQQGNVFSCSVMHEALHNHYTQKSLSLSP heavy 2: QDQLVQSGAEVKKPGASVKVSCKASGFNIKDTYIQWVRQAPGQGLEWMGRIDPLRKQTKYREKFEGRVTITADTSTNTAYMELSSLRSEDTAVYYCVRSGREFDYWGQGTLVTVSSASTKGPSVFPLAPSSKSTSGGTAALGCLVKDYFPEPVTVSWNSGALTSGVHTFPAVLQSSGLYSLSSVVTVPSSSLGTQTYICNVNHKPSNTKVDKKVEPKSCDKTHTCPPCPAPELLGGPSVFLFPPKPKDTLMISRTPEVTCVVVDVSHEDPEVKFNWYVDGVEVHNAKTKPREEQYNSTYRVVSVLTVLHQDWLNGKEYKCKVSNDALPMPIEETISKAKGQPREPQVYTLPPSRCELTKNQVSLSCAVKGFYPSDIAVEWESNGQPENNYKTTPPVLDSDGSFFLVSKLTVDKSRWQQGNVFSCSVMHEALHNHYTQKSLSLSP light: DIQMTQSPSSLSASVGDRVTITCRASQDIHKYIAWYQQKPGQAPRLLIQYTSTLQPGVPSRFSGSGSGTDYTFTISSLQPEDIATYYCLQYEQLRTFGGGTKVEIKRTVAAPSVFIFPPSDEQLKSGTASVVCLLNNFYPREAKVQWKVDNALQSGNSQESVTEQDSKDSTYSLSSTLTLSKADYEKHKVYACEVTHQGLSSPVTKSFNRGEC |
